For orientation: Kd means a measure of binding affinity in units of concentration.

The series “cryo-EM structure” concerns the molecule itself. As to the kind of experiment: cryo-EM structure.
Series [1] addresses T1, Recombinant CD73-His (human, UniProt P21589). As to the kind of experiment: BLI. (BLI is a label-free optical method that tracks binding on a fibre tip over time.)
The target in series [2] is T1, Recombinant CD73-His. The series can be described thus: cryo-EM structure.

B1: Recombinant CD73-His (enzyme, human, UniProt P21589 27-549, looked up)
chain: WELTILHTNDVHSRLEQTSEDSSKCVNASRCMGGVARLFTKVQQIRRAEPNVLLLDAGDQYQGTIWFTVYKGAEVAHFMNALRYDAMALGNHEFDNGVEGLIEPLLKEAKFPILSANIKAKGPLASQISGLYLPYKVLPVGDEVVGIVGYTSKETPFLSNPGTNLVFEDEITALQPEVDKLKTLNVNKIIALGHSGFEMDKLIAQKVRGVDVVVGGHSNTFLYTGNPPSKEVPAGKYPFIVTSDDGRKVPVVQAYAFGKYLGYLKIEFDERGNVISSHGNPILLNSSIPEDPSIKADINKWRIKLDNYSTQELGKTIVYLDGSSQSCRFRECNMGNLICDAMINNNLRHTDEMFWNHVSMCILNGGGIRSPIDERNNGTITWENLAAVLPFGGTFDLVQLKGSTLKKAFEHSVHRYGQSTGEFLQVGGIHVVYDLSRKPGDRVVKLDVLCTKCRVPSYDPLKMDEVYKVILPNFLANGGDGFQMIKDELLRHDSGDQDINVVSTYISKMKVIYPAVEGRIKFS
Consider B1, for which the binding result in “cryo-EM structure” is “binds”.

B2: Mupadolimab (antibody, V domains shown)
VH: QVQLVQSGAEVEKPGASVKVSCKASGYTFTSYWITWVRQAPGQGLEWMGDIYPGSGNTNYNEKFKTRVTITADKSTSTAYMELSSLRSEDTAVYYCAKEGGLTTEDYALDYWGQGTLVTVSS
VL: EIVLTQSPATLSLSPGERATLSCRASKNVSTSGYSYMHWYQQKPGQAPRLLIYLASNLESGIPPRFSGSGYGTDFTLTINNIESEDAAYYFCQHSRELPFTFGQGTKVEIK
On to B2, for which the dissociation constant Kd with Recombinant CD73-His [1] was determined as 0.2 nM. Moreover, the “stoichiometry N” value with Recombinant CD73-His [2] was 2 antibodies per CD73 homodimer.

The values above are taken from publication PMC9723961 (Journal for Immunotherapy of Cancer, 2022).
